Substitutions are numbered along the chain they refer to.
Tests used:
[1] = biological target: T1, 3×FLAG-NRFL-1 (wild type) (C. elegans, UniProt G5EDM4 1-467); test: pull-down; GST pull-down: 2 µg GST fusion protein and 5 µg recombinant 3×FLAG-NRFL-1, overnight at 4°C in 50 mM Tris pH 7.4, 150 mM NaCl, 5 mM EDTA, 0.1% NP-40; blot with anti-FLAG; conditions: both partners purified
T1 construct: NRFL-1 (C01F6.6a), C. elegans, full-length wild type; cDNA first ligated into p3×FLAG-myc-CMV-24, then the 3×FLAG-NRFL-1 fragment moved into pGEX-6P-1; also called recombinant NRFL-1 wild-type; not shown: GST, N-terminal, cleaved; 3×FLAG, N-terminal, kept
T1 sequence (looked up): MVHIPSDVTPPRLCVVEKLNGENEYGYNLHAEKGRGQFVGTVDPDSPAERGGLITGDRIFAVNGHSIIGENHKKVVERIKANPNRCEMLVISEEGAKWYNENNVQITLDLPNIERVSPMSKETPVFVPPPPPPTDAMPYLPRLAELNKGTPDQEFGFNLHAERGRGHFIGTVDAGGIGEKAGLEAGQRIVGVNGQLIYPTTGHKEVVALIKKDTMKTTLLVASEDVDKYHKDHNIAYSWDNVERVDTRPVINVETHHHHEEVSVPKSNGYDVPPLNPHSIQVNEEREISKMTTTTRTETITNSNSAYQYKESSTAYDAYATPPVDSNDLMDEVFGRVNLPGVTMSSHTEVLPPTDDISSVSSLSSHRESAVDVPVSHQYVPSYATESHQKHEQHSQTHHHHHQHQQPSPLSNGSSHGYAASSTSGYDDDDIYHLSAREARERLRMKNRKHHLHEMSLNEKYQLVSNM

[2] = biological target: T2, 3×FLAG-NRFL-1 with PDZ I mutated (G26A/Y27A) (C. elegans, UniProt G5EDM4 1-467, G26A | Y27A); test: as above; conditions: both partners purified
T2 construct: not shown: GST, N-terminal, cleaved; 3×FLAG, N-terminal, kept
T2 sequence (looked up): T1 sequence (looked up) with G26A, Y27A

binding result [1]: binds
binding result [2]: binds
B1: GST fusion of AAT-6 C-terminus tail corresponding to residues 487–523 (domain or fragment, C. elegans, UniProt Q22397 487-523, looked up)
chain: GDEEMKNAIGGAESESEKVPAYKISPTGNGQFKCTRM
notes: also called GST-AAT-6; source: E. coli BL21 (DE3), purified (Glutathione Sepharose 4B); not shown: GST, N-terminal, kept

Reference: publication PMC3419730, “NRFL-1, the C. elegans NHERF Orthologue, Interacts with Amino Acid Transporter 6 (AAT-6) for Age-Dependent Maintenance of AAT-6 on the Membrane” (PLoS ONE, 2012)
